B1: mouse hybridoma anti-human CD40 antibody 38B4 (antibody, V domains shown)
VH: QVRLKQSGAELVRPGASVKVSCKASGYTFTDYYINWVKQRPGQGLEWIAGIYPGTGNTYYNEKFKGKATLTAERSSSTAYMQLTSLTSEDSAVYFCTRRGLPSLCFDYWGQGTTLTVSS
VL: DFQMTQTTSSLSASLGDRVTISCSASQGISNYLNWYQQKPDGTVKLLIYYTSSLHSGVPSRFSGSGSGTDYSLTISNLEPEDIATYYCQQYSKLPPTFGGGTKLEIK
notes: Murine hybridoma antibody
B2: mouse hybridoma anti-human CD40 antibody 2H6 (antibody, V domains shown)
VH: QVQLQQSGAELVRPGTSVKVSCKASGYAFSDYLIEWAKQRPGQGLEWIGVINPGSGGSNYNEKIKDRATLTADKSSSTAYMQLSSLTSEDSAVYFCARGGGGFTYWGQGTLVTVSA
VL: EIQLTQTTSSLSASLGDRVTISCRASQDISNYLNWYQQKPDGTIKLLLNFASRLHSGVPSRFSGSGSGTDFFLTISNLEQDDIATYFCQQGSTLPWTFGGGTKLEIK
notes: Murine hybridoma antibody; also called mouse mAb 2H6
B3: mouse hybridoma anti-human CD40 antibody 14C10 (antibody, V domains shown)
VH: B2 VH with L4V, S30T, D31N, A37V, G54E, S55F, S58T, I64F, D66G, R67K
VL: HIQMTQTTSSLSASLGDRVTISCRASQDISSHLNWYQQKPDGTVKLLISYTSRLHSGVPSRFSGSGSGADYSLTISNLEQEDIATYFCQQGNTLPWTFGGGTKLEIK
notes: Murine hybridoma antibody
B4: mouse hybridoma anti-human CD40 antibody 9E5 (antibody, V domains shown)
VH: QVQLQQPGADLVKPGASVKMSCKASGYILTTYWITWVKQRPGQGLEWIGDIHPGSGSTKYNEKFKSKATLTVDTSSSTAYMQLTRLSSEDSAVYYCARRDYWGQGTTLTVSS
VL: DVLMTQSPLSLPVSLGDQASISCRSSQNIVNSQGNTYLEWYLQKPGESPKLLIYKVTNRFSGVPDRFSGSGSGTDFTLKISRVEAEDLGVYYCFQASLVPWTFGGGTKLEIK
notes: Murine hybridoma antibody; also called mouse 9E5
B5: mouse hybridoma anti-human CD40 antibody 1D9 (antibody, V domains shown)
VH: QVRLQQSGAELVRPGTSMRVSCKASGYAFTNYLINWVKQRPGQGLEWIGILNPGSGGTNYNENFKDKATLTADKSSNTAYMQLSSLTSEDSAVYFCIRGSPGFAYWGQGTLVTVSA
VL: DIQMTQTTSSLSASLGDRVTISCRASQDINIYLNWYQQKPDGTVKLLIYSTSGLHSGVPSRFNGSGSGTDYSLTISNLEQEDIATYFCQQGYTLPYTFGGGTKLEIK
notes: Murine hybridoma antibody
B6: humanized anti-CD40 antibody hu9E5 (H1c heavy chain and L1a light chain) (antibody, human IgG1, kappa, V domains shown)
VH: QVQLVQSGAEVKKPGASVKVSCKASGYILTTYWITWVRQAPGQGLEWMGDIHPGSGSTKYNEKFKSRVTLTVDTSISTAYMELSRLRSEDTAVYYCARRDYWGQGTTVTVSS
VL: DIVMTQSPLSLPVTPGEPASISCRSSQNIVNSQGNTYLEWYLQKPGQSPQLLIYKVTNRFSGVPDRFSGSGSGTDFTLKISRVEAEDVGVYYCFQASLVPWTFGGGTKVEIKR
notes: the suffix -25 is not explained; Human IgG1/kappa; also called Hu9E5-25
B7: humanized anti-CD40 antibody hu2H6 (H1b heavy chain and L1c light chain) (antibody, human IgG1, kappa, V domains shown)
VH: QVQLVQSGAEVKKPGSSVKVSCKASGYAFSDYLIEWVRQAPGQGLEWMGVINPGSGGSNYNEKIKDRVTLTADKSTSTAYMELSSLRSEDTAVYYCARGGGGFTYWGQGTLVTVSS
VL: DIQLTQSPSSLSASVGDRVTITCRASQDISNYLNWYQQKPGKTIKLLLNFASRLHSGVPSRFSGSGSGTDFTFTISSLQPEDIATYYCQQGSTLPWTFGGGTKVEIKR
notes: the suffix -11 is not explained; Human IgG1/kappa; also called Hu2H6-11
B8: human-mouse chimeric antibody 2H6-C (antibody, V domains shown)
VH: B2 VH
VL: B2 VL
notes: Variable regions of murine 2H6 ligated to the constant region of human antibody IgG1; made in HEK293 cells
B9: human-mouse chimeric antibody 9E5-C (antibody, V domains shown)
VH: B4 VH
VL: B4 VL
notes: Variable regions of murine 9E5 ligated to the constant region of human antibody IgG1; made in HEK293 cells

Numbering of substitutions follows the chain as printed.

T2 sequence (P27512 24-193 limits assumed): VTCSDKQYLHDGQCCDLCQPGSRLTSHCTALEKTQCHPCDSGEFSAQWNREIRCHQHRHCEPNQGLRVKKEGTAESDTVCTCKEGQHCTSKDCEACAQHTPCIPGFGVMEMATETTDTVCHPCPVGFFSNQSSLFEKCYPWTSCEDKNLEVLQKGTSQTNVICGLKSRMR

The target in one assay is human CD40 on HEK293 cells stably transfected with the human CD40 gene (HEK-Blue CD40L cells) (human, UniProt P25942 21-277). The assay is described as follows: cell-based or functional assay.
Chain of human CD40 on HEK293 cells stably transfected with the human CD40 gene (HEK-Blue CD40L cells) (P25942 21-277): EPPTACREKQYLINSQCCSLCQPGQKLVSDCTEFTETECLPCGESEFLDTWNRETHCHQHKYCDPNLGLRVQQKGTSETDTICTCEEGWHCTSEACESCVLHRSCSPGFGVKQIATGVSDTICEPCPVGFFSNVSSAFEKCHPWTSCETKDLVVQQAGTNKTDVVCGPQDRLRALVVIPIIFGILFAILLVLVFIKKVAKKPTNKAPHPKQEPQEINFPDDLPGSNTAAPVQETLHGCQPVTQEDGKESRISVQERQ
As for B1, the “HEK293-CD40L cells activity assay EC50” value was determined as 36.5 ng/mL.

B2: the “HEK293-CD40L cells activity assay EC50” value was found to be 15.1 ng/mL.

For the molecule B3, the “HEK293-CD40L cells activity assay EC50” value is 10.9 ng/mL.

Regarding B4, the “HEK293-CD40L cells activity assay EC50” value was found to be 17.1 ng/mL.

Consider B5, for which the “HEK293-CD40L cells activity assay EC50” value stood at 14.5 ng/mL.

For the next assay, the target named is T1, His-tagged human CD40 (h-CD40-his) recombinant protein (human, UniProt P25942 21-193).
T1 construct: range 21-193; Bought from Acrobiosystems; also called Human CD40-his; not shown: His tag
T1 sequence (P25942 21-193 limits assumed): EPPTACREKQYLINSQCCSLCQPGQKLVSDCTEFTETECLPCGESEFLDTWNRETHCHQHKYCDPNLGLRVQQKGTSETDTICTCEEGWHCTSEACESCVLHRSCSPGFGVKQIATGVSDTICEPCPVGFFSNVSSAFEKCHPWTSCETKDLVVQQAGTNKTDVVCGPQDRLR
Description: Biacore, affinity to human CD40. The text has this:
(§1) Human antibody captured antibody was covalently coupled to CM5 biosensor chip of Biacore instrument (Biacore X100, GE) according to the method described in the description of Human Antibody Capture Kit (Cat. BR-1008-39, GE), thereby capturing a certain amount of chimeric or humanized antibodies to be tested based on affinity. Then a series of concentration gradient CD40 antigens (purchased from Acrobiosystems) flowed through the surface of chip, and Biacore X100 (GE) was used to detect the reaction signals in real time to obtain the binding and dissociation curves. After the completion of each cycle of dissociation, the biochip was rinsed and regenerated with the regeneration solution provided by the Human Antibody Capture Kit. Amine Coupling Kits (Cat. BR-1000-50, GE) were purchased from GE, and the buffer solution HBS-EP+buffer 1× (pH 7.4), which was obtained from HBS-EP+buffer 10× (Cat. BR-1006-69, GE) by dilution with D. I. Water.
As to B6, the “fold of affinity against the Alligator reference” value turned out to be 9 times and the “fold of affinity against the Pfizer reference” value is 3 times.

For the next assay, the target named is T1, His-tagged human CD40 (h-CD40-his) …. The assay is described as follows: Biacore X100, antibody captured by anti-human antibody on CM5 chip, CD40 antigen as analyte, 1:1 model.
Text: as §1
Background: Surface plasmon resonance follows binding to a sensor surface in real time, without labels.
What is called Kd is the concentration at which binding is half-saturated. In the case of B6, the Kd came out at 5.3 nM.

Regarding B7, the equilibrium dissociation constant (Kd) came to 11.2 nM.

B8: the Kd stood at 3.98 nM.

On to B9, for which the dissociation constant Kd turned out to be 2.68 nM.

A further assay has as its target T2, His-tagged mouse CD40 (m-CD40-his) recombinant protein (mouse, UniProt P27512 24-193).
T2 construct: range 24-193; Bought from Acrobiosystems; also called Mouse CD40-his; not shown: His tag
Description: ELISA, CD40-his coated. On the technique in general: In an ELISA, binding on a coated surface is turned into a signal by an enzyme label.
Turning to B1, the binding result is reported as “no binding”.

B2: the binding result is “no binding”.

As to B3, the binding result is recorded as “no binding”.

Consider B4, for which the binding result was “no binding”.

On to B5, for which the binding result was “no binding”.

For another assay, the target named is T3, His-tagged rhesus CD40 (rhesus-CD40-his) recombinant protein (rhesus, UniProt F6SNI1 21-193).
T3 construct: range 21-193; Bought from Acrobiosystems (# CD0-052H7); not shown: His tag
The assay is described as follows: ELISA, rhesus CD40-his coated. As to the method:
(§2) Binding properties of anti-CD40 antibodies was detected by ELISA assay. The CD40 recombinant protein with his-tag was directly used for coating, after the antibody was added, the binding activity of the antibody to the antigen—was detected by adding a secondary antibody (HRP-conjugated anti-antibody Fc antibody) and HRP substrate TMB.
(§3) A 96-well microtiter plate was coated with 100 μl/well of human or rhesus CD40-his protein at a concentration of 0.5 μg/ml and incubated overnight at 4° C. The plate was rinsed three times with rinsing buffer, 250 μl per well. For each rinsing, the plate was shaken for 10 seconds to ensure sufficient cleaning. 200 μl blocking solution was added in each well and incubated for 2 hours at room temperature. Then the plate was washed three times with 250 μl per well. The plate was shaken for 10 seconds in each rinsing to ensure sufficient cleaning. 100 μl of anti-CD40 antibody to be tested diluted in dilution was added to each well, and incubated for 1 hour at room temperature, then rinsing the plate for three times with 250 μl of rinsing buffer per well. 100 μl of HRP-labeled goat anti-human IgG secondary antibody diluted 1:20000 with diluent was added to each well, and incubated for 1 hour at room temperature. Then the plate was washed three times with 250 μl per well. 100 μl of TMB was added to each well and allowed to react for 15 minutes in the dark. 50 μl of 0.16 M sulfuric acid per well was added. The OD value was measured at 450 nm by Thermo MpμltiSkanFc plate reader and the binding EC50 value of the CD40 antibody to […] was calculated.
A word on the EC50: it is the concentration that produces a half-maximal response. Regarding B6, the 50% effective concentration (EC50) amounted to 1.66 ng/mL.

Take B7: the concentration for a half-maximal effect (EC50) came out at 2.95 ng/mL.

Take B1: the EC50 was determined as 11.8 ng/mL.

Turning to B2, the EC50 turned out to be 7.21 ng/mL.

Turning to B3, the concentration giving a half-maximal response (EC50) was 9.49 ng/mL.

Turning to B4, the EC50 was 6.7 ng/mL.

In the case of B5, the 50% effective concentration (EC50) was found to be 9.81 ng/mL.

A further assay concerns the target T1, His-tagged human CD40 (h-CD40-his) …. The assay is described as follows: ELISA, human CD40-his coated. As to the method: as §2, §3
With B6, the EC50 was found to be 1.65 ng/mL.

Consider B7, for which the 50% effective concentration (EC50) amounted to 3.68 ng/mL.

Turning to B1, the EC50 worked out at 12.9 ng/mL.

As for B2, the EC50 came out at 7.06 ng/mL.

Consider B8, for which the EC50 amounted to 4.56 ng/mL.

For B3, the EC50 is 8.81 ng/mL.

Take B4: the 50% effective concentration (EC50) was 6 ng/mL.

On to B9, for which the EC50 turned out to be 1.35 ng/mL.

Regarding B5, the concentration giving a half-maximal response (EC50) was determined as 10 ng/mL.
